In experiment [1] the target is T1, Untagged KPNB1 (Homo sapiens (Human), UniProt Q14974 1-876).
T1 construct: KPNB1 amplified by PCR and cloned into pEGFP-C1 lacking the GFP tag; also called Wildtype KPNB1
The experiment in a line: GFP-Trap IP from HEK293T lysates, western blot. The source says:
FIGS. 29A-29C: Untagged KPNB1 interacts with both the RRM2 and PrLD of TDP-CTF. FIG. 29A) (Left) Lysates from HEK293T cells expressing GFP alone, or untagged KPNB1 with GFP, GFP-TDP-CTF or GFP-TDP43^WT were subjected to immunoprecipitation with GFP-Trap magnetic beads. Whole cell lysates (input) and immunoprecipitates (IP) were subjected to western blot analysis using indicated antibodies. (Right) Quantification of relative KPNB1 levels in IP normalized by KPNB1 levels in input. Statistical analysis was performed using one-way ANOVA and Bonferroni's post hoc test (**p<0.01, ***p<0.001, n=3). […] FIG. 29C) (Left) Lysates from HEK293T cells expressing GFP alone, or untagged KPNB1 with GFP, GFP-TDP-CTF, GFP-TDP-CTF^non-PrLD or GFP-TDP-PrLD were subjected to immunoprecipitation with GFP-Trap magnetic beads. Whole cell lysates (input) and immunoprecipitates (IP) were subjected to western blot analysis using indicated antibodies. (Right) Quantification of relative KPNB1 levels in IP normalized by KPNB1 levels in input. Statistical analysis was performed using one-way ANOVA and Bonferroni's post hoc test (***p<0.001, n=3).
FIGS. 31A-31C: The PrLD of TDP-43 interacts with FG-Nups and KPNB1. FIG. 31A) Immunofluorescence (IF) of HEK293T cells expressing GFP or GFP-TDP-PrLD and stained for endogenous Nup98 and Nup62. TDP-PrLD forms small cytoplasmic foci positive for Nup62. FIG. 31B) IF of HEK293T cells expressing GFP or GFP-TDP-PrLD and stained for endogenous KPNB1. KPNB1 colocalizes with TDP-PrLD foci in the cytoplasm. Hoechst staining was used to outline nuclei. Scale bar: 5 μm. FIG. 31C) Lysates from HEK293T cells expressing GFP or GFP-TDP-PrLD were subjected to immunoprecipitation with GFP-Trap magnetic beads. Whole cell lysates (input) and immunoprecipitates (IP) were subjected to western blot analysis using indicated antibodies. The PrLD of TDP-43 interacts with Nup62, Nup98 and KPNB1, but not with Ran.
HEK293T cells were seeded in 6-well plates and transfected for 48 hours. Cells were then lysed in IP Lysis buffer (Fisher) supplemented with a protease inhibitor cocktail (Roche), and were centrifuged at 15000 rpm for 20 minutes at 4° C. A small aliquot of the recovered supernatant was set aside (input).
In general terms: A western blot detects proteins with antibodies after separation by electrophoresis.

Experiment [2] concerns the target T2, mCherry-KPNB1 (Homo sapiens (Human), UniProt Q14974 1-876).
T2 construct: mCherry was cloned into GFP-KPNB1; also called mCherry-tagged KPNB1; not shown: mCherry tag (mCherry-C1, Clontech)
The experiment in a line: co-IP with mCherry-KPNB1, western blot. The source says: FIG. 30B) Lysates from HEK293T cells co-expressing mCherry-KPNB1 with GFP, GFP-TDP-CTF or GFP-TDP-CTF C-terminal deletion constructs were subjected to immunoprecipitation with RFP-Trap magnetic beads. Whole cell lysates (input) and immunoprecipitates (IP) were subjected to western blot analysis using indicated antibodies. Deletion of amino-acids 230-240 in TDP-CTF reduced its binding to KPNB1. FIG. 30C) Lysates from HEK293T cells co-expressing mCherry-KPNB1 with GFP, GFP-TDP-CTF or GFP-TDP-CTF N-terminal deletion constructs were subjected to immunoprecipitation with RFP-Trap magnetic beads. Whole cell lysates (input) and immunoprecipitates (IP) were subjected to western blot analysis using indicated antibodies. Deletion of amino-acids 230-240 in TDP-CTF reduces its binding to KPNB1. TDP-PrLD weakly interacts with KPNB1. FIG. 30D) (Left) Lysates from HEK293T cells co-expressing mCherry-KPNB1 with GFP, GFP-TDP-CTF^WT or GFP-TDP-CTF^Δ230-240 were subjected to immunoprecipitation with RFP-Trap magnetic beads. […] (Right) Quantification of relative GFP levels in IP normalized by GFP levels in input confirm that GFP-TDP-CTF^Δ230-240 interacts less with mCherry-KPNB1. […] FIG. 30F) Western blot analysis and quantification of insoluble GFP-tagged TDP-CTF^WT or TDP-CTF^Δ230-240 in HEK293T cells expressing mCherry or mCherry-KPNB1. […]

Experiment [3] addresses T3, GFP-KPNB1 full-length (FL) (Homo sapiens (Human), UniProt Q14974 1-876).
T3 construct: the plasmid is GFP-KPNB1 (Euroscarf #P30478); The linker is stated in general for fluorescent protein fusions; also called EGFP-KPNB1; GFP-KPNB1^FL; not shown: GFP/EGFP tag (pEGFP-C1, Clontech)
The experiment in a line: co-IP of GFP-tagged KPNB1 truncations, western blot. The source says: FIG. 21A) Schematic domain structure of KPNB1. KPNB1 is comprised of 19 HEAT repeats (H1-19). RanGTP and importin-α interact with H1-8 and H8-19, respectively. FG-Nups bind to two regions of KPNB1, H5-7 and H14-16. FIG. 21B) Lysates from HEK293T cells expressing GFP, GFP-KPNB1 full-length (FL), N-terminal fragments of KPNB1 (H1-9 . . . H1) or the C-terminal fragment of KPNB1 (H10-19) were subjected to immunoprecipitation with GFP-Trap magnetic beads. Whole cell lysates (input) and immunoprecipitates (IP) were subjected to western blot analysis using indicated antibodies. KPNB1 H1-8, the smallest fully active KPNB1 fragment in reducing TDP-43 aggregation, strongly interacts with FG-Nups and Ran, and weakly with importin-al in comparison with full-length KPNB1. FIG. 21C) (Top) Schematic domain structure of KPNB1 H1-8^mNIS harboring four missense mutations (1178A, F217A, Y255A, I263R) in the nucleoporin-interacting site (NIS). (Bottom) Lysates from HEK293T cells expressing GFP, GFP-KPNB1 H1-8^WT or H1-8^mNIS were subjected to immunoprecipitation with GFP-Trap magnetic beads. Whole cell lysates (input) and immunoprecipitates (IP) were subjected to western blot analysis using indicated antibodies. […] Hoechst staining was used to outline nuclei. Scale bar: 5 μm. […] Statistical analysis was performed using one-way ANOVA and Bonferroni's post hoc test (**p<0.01, ***p<0.001, n=4). FIG. 21F) IF of HEK293T cells co-expressing GFP-(GR)₁₀₀ with an empty plasmid (ctrl), FLAG-tagged KPNB1 H1-8^WT or H1-8^mNIS and stained for endogenous TDP-43. Unlike KPNB1 H1-8^mNIS, KPNB1 H1-8^WT prevents the sequestration of endogenous TDP-43 in cytoplasmic GR aggregates. Arrowheads point to cytoplasmic GR aggregates. Hoechst staining was used to outline nuclei. Scale bar: 5 μm.

The source of these data is patent publication US20240226230A1 (MAYO FOUNDATION FOR MEDICAL EDUCATION AND RESEARCH, published 2024).

Where no end group is shown, it is not given here.

T3 sequence (Q14974 other isoform, or with tags, fused parts or gaps): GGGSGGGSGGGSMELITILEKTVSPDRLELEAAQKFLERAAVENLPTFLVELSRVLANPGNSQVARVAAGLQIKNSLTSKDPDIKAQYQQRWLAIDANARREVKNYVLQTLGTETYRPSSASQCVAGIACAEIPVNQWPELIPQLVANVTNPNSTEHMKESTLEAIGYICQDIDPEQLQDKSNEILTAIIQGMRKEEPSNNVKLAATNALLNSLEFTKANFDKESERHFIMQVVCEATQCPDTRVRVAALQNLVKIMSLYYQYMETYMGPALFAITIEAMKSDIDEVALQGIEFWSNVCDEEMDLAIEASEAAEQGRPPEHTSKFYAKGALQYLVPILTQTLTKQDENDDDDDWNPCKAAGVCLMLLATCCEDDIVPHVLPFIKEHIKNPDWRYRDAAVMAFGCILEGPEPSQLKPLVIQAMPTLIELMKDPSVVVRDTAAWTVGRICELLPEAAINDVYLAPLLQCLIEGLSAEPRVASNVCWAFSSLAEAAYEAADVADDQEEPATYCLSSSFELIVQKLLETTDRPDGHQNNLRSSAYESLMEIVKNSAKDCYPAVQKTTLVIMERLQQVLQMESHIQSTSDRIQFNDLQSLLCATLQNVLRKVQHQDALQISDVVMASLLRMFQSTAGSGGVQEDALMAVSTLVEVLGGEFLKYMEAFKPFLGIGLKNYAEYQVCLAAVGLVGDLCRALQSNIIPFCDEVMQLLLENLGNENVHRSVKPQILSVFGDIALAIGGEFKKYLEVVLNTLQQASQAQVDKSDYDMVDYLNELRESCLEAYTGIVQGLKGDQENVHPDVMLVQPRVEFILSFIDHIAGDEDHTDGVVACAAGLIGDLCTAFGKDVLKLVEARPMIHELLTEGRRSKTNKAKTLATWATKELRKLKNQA
T1 sequence (Q14974 whole entry): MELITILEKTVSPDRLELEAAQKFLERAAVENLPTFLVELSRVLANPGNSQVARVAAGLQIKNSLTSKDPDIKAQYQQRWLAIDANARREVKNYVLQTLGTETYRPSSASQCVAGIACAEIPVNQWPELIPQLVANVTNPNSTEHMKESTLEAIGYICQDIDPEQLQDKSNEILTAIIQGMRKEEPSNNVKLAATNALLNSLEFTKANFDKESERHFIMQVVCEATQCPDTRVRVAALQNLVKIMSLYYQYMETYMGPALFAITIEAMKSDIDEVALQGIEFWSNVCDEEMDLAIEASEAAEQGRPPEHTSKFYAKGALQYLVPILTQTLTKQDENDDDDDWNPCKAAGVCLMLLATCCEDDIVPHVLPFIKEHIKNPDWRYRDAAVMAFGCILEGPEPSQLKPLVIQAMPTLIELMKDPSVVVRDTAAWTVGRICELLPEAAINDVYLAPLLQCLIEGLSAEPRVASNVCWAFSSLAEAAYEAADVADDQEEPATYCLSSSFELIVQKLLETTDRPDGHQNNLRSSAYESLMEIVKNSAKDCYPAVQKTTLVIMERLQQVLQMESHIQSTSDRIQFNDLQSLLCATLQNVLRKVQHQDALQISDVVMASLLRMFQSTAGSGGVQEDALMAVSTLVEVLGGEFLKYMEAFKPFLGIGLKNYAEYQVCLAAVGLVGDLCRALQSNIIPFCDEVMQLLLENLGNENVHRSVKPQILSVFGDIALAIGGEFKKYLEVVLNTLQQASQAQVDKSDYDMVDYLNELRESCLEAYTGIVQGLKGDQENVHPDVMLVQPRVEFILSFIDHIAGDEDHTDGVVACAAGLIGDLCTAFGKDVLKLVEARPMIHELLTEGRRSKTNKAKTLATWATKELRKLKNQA
T2 sequence (Q14974 other isoform, or with tags, fused parts or gaps): as the sequence (Q14974 other isoform, or with tags, fused parts or gaps) above

B1: GFP-TDP-CTF non-PrLD (other, human)
chain: GGGSGGGSGGGSREFFSQYGDVMDVFIPKPFRAFAFVTFADDQIAQSLCGEDLIIKGISVHISNAEPKHNSNRQLERSG
notes: not shown: GFP/EGFP tag (pEGFP-C1, Clontech)
As for B1, in experiment [1], the binding result was “binds”.

B2: GFP-TDP-CTF 208-239 (other, human)
chain: {GFP}-GGGSGGGSGGGSREFFSQYGDVMDVFIPKPFRAFAFVTFADDQI
modifications: also: GFP tag fused N-terminally, not in chain, (GGGS)3 linker in chain
notes: as for B1
Turning to B2, in experiment [2], the binding result is “binds”.

B3: endogenous Nup50 (other, human, UniProt Q9UKX7 1-468, looked up)
chain: MAKRNAEKELTDRNWDQEDEAEEVGTFSMASEEVLKNRAIKKAKRRNVGFESDTGGAFKGFKGLVVPSGGGRFSGFGSGAGGKPLEGLSNGNNITSAPPFASAKAAADPKVAFGSLAANGPTTLVDKVSNPKTNGDSQQPSSSGLASSKACVGNAYHKQLAALNCSVRDWIVKHVNTNPLCDLTPIFKDYEKYLANIEQQHGNSGRNSESESNKVAAETQSPSLFGSTKLQQESTFLFHGNKTEDTPDKKMEVASEKKTDPSSLGATSASFNFGKKVDSSVLGSLSSVPLTGFSFSPGNSSLFGKDTTQSKPVSSPFPTKPLEGQAEGDSGECKGGDEEENDEPPKVVVTEVKEEDAFYSKKCKLFYKKDNEFKEKGIGTLHLKPTANQKTQLLVRADTNLGNILLNVLIPPNMPCTRTGKNNVLIVCVPNPPIDEKNATMPVTMLIRVKTSEDADELHKILLEKKDA
notes: Detected with anti-Nup50
Regarding B3, the binding result in experiment [3] is recorded as “binds”.

B4: endogenous Nup62 (other, human, UniProt P37198 2-522, looked up)
chain: SGFNFGGTGAPTGGFTFGTAKTATTTPATGFSFSTSGTGGFNFGAPFQPATSTPSTGLFSLATQTPATQTTGFTFGTATLASGGTGFSLGIGASKLNLSNTAATPAMANPSGFGLGSSNLTNAISSTVTSSQGTAPTGFVFGPSTTSVAPATTSGGFSFTGGSTAQPSGFNIGSAGNSAQPTAPATLPFTPATPAATTAGATQPAAPTPTATITSTGPSLFASIATAPTSSATTGLSLCTPVTTAGAPTAGTQGFSLKAPGAASGTSTTTSTAATATATTTSSSSTTGFALNLKPLAPAGIPSNTAAAVTAPPGPGAAAGAAASSAMTYAQLESLINKWSLELEDQERHFLQQATQVNAWDRTLIENGEKITSLHREVEKVKLDQKRLDQELDFILSQQKELEDLLSPLEELVKEQSGTIYLQHADEEREKTYKLAENIDAQLKRMAQDLKDIIEHLNTSGAPADTSDPLQQICKILNAHMDSLQWIDQNSALLQRKVEEVTKVCEGRRKEQERSFRITFD
notes: Detected with anti-Nup62
Regarding B4, the binding result in experiment [3] was “binds”.
